The record followed here is the supplement of paper PMC9170038.

This data set has as its system MS2 coat protein. Briefly: apparent KD of MS2 coat protein; higher = weaker reporter binding. The conditions noted are these: Eterna round: R107. An outline of the steps: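 Apparent KD was obtained for each design as the median of normalised binding-curve fits over its clusters. RNA switches transcribed on-chip from Illumina sequencing clusters were titrated with SNAP-549-labelled MS2 coat protein (twofold steps, 0.7 or 1.5 nM to 3 µM) in 100 mM Tris-HCl pH 7.5, 80 mM KCl, 4 mM MgCl2, without or with constant ligand.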

Setting [1] is: input ligand: theophylline 20 uM.
[2] abbreviates: input ligand: theophylline 2 mM.
Setting [3] is: input ligand: tryptophan 2.4 mM.

As for “GGCUAGGCUAGCGAUACCAGCAACCAACAUGAUCUGAGGAUCACCCAGGUAGUUGGACGUUGCCCUUGGCAGCGCUAGCCUAGCC [SSThB NP+V+V2 #12 Diff Apt, Same Structure]”, the “apparent KD of MS2 coat protein” value was 15.4 nM (input ligand: arginine 13.2 mM); 14.3 nM (input ligand: none); 16 nM under setting [1]; 12.2 nM under setting [2]; 15.5 nM under setting [3].

For the sequence “GCCUCCAGCCGAAGGAGCGCUAGAAGGUGACAUGAGGAUCACCCAUGUGUGUGAUGUGGCUAGCAGGUAGGUCGCGGAGGAGGUU [Exclusion - Arginine B (Freestyle 20)]”, the “apparent KD of MS2 coat protein” value (input ligand: arginine 13.2 mM) amounted to 62.7 nM; the “apparent KD of MS2 coat protein” value (input ligand: none) amounted to 68.5 nM; the “apparent KD of MS2 coat protein” value under setting [1] turned out to be 133 nM; the “apparent KD of MS2 coat protein” value under setting [2] is 120 nM; the “apparent KD of MS2 coat protein” value under setting [3] came out at 89.8 nM.

As to “AGUAUCAGUGGAAGGAGCGUCGCGAAUGUCACAUGAGGAUCACCCAUGUCGUCUUGAGCGCGACAGGUAGGUCGCCACGGUAGGC [SS-ArgB4]”, the “apparent KD of MS2 coat protein” value turned out to be 12.1 nM (input ligand: arginine 13.2 mM); 10.1 nM (input ligand: none); 15.9 nM under setting [1]; 14.5 nM under setting [2]; 13.5 nM under setting [3].

“GGAUAGGACAGAAGGAGCGACAUGCGACGAAAGUCGAAAAGAUCACAUGAGGAUCACCCAUGUCAGGUAGGUCGCUGUCCUAUCG [ArgXB 10 #Zipper #MS2Left #StaticStem #Blueprint]”: the “apparent KD of MS2 coat protein” value (input ligand: arginine 13.2 mM) came to 119 nM; the “apparent KD of MS2 coat protein” value (input ligand: none) is 127 nM; the “apparent KD of MS2 coat protein” value under setting [1] was 115 nM; the “apparent KD of MS2 coat protein” value under setting [2] was 154 nM; the “apparent KD of MS2 coat protein” value under setting [3] was 89.9 nM.

Regarding “AUAACAUGAGGAUCACCCAUGUUGAGUGAUACCAGACCAUGUAGUGUCCCUUGGCAGCACAGGUAAAGUUGUAAAUAACGAUAGA [#13 SameState-TheophyllineA]”, the “apparent KD of MS2 coat protein” value (input ligand: arginine 13.2 mM) came to 38.6 nM; the “apparent KD of MS2 coat protein” value (input ligand: none) is 53.9 nM; the “apparent KD of MS2 coat protein” value under setting [1] amounted to 64.7 nM; the “apparent KD of MS2 coat protein” value under setting [2] turned out to be 22.8 nM; the “apparent KD of MS2 coat protein” value under setting [3] was determined as 59.7 nM.

For the sequence “UUGGGUUUGUGAAGGAGCGGGAAAUAUAUAUAUAUAAUCCUAACAUGAGGAUCACCCAUGUCCCAGGUAGGUCGCGCGGGUUUGG [12.N]”, the “apparent KD of MS2 coat protein” value amounted to 46.4 nM (input ligand: arginine 13.2 mM); 60.2 nM (input ligand: none); 63.5 nM under setting [1]; 65.5 nM under setting [2]; 51.6 nM under setting [3].

For the sequence “GGAUAGGACAGAAGGAGCGACAUGAGGAUCACCCAUGUCUACUAGGACGAAAGUCCGUCAUGUCAGGUAGGUCGCUGUCCUAUCG [#29 Exclusion - Arginine B]”, the “apparent KD of MS2 coat protein” value is 68.8 nM (input ligand: arginine 13.2 mM); 88.7 nM (input ligand: none); 103 nM under setting [1]; 114 nM under setting [2]; 81.2 nM under setting [3].

“GGCCCUGCGAGCGCUCGCAGGGCCGCGGAUACCAGCGAGGUCCAUCGCCCUUGGCAGCCGAACAUGAGGAUCACCCAUGUCGGUA [#1 Same State - Theophylline A Attempt #13 (HarryS)]”: the “apparent KD of MS2 coat protein” value (input ligand: arginine 13.2 mM) was 7.87 nM; the “apparent KD of MS2 coat protein” value (input ligand: none) was 9.84 nM; the “apparent KD of MS2 coat protein” value under setting [1] came to 12.9 nM; the “apparent KD of MS2 coat protein” value under setting [2] was determined as 18.3 nM; the “apparent KD of MS2 coat protein” value under setting [3] is 9.44 nM.

Take “GGGUAAGAUCCGGAUACCAGCGAACAUGAGGAUCACCCAUGUGACCUAAGAUAGGCUAAACGCCCUUGGCAGCCGAGAUAGCGUU [Same State Theophylline B GF 6]”: the “apparent KD of MS2 coat protein” value by setting is: (input ligand: arginine 13.2 mM) 27.2 nM; (input ligand: none) 41.3 nM; under setting [1], 34.2 nM; under setting [2], 30.7 nM; under setting [3], 39.5 nM.

In the case of “CAUUAUGUAACUGAUACCAGUGUACUGACAUGAGGAUCACCCAUGUUGGGUUUUGUUGUACACCCUUGGCAGCAGAAUCAUAAUG [AstrosExyTheB#2]”, the “apparent KD of MS2 coat protein” value is 43.3 nM (input ligand: arginine 13.2 mM), 70.3 nM under setting [1] and 57.8 nM under setting [3].

For the sequence “AUACAUGAGGAUCACCCAUGUCCUCGUGAUCGAGGACCGGUACGGCCGCCACUCGGUCCUCGCGAGGAGGAGUCAAAGACUCCAA [Omei Trp A SS A v4]”, the “apparent KD of MS2 coat protein” value reads like this: (input ligand: arginine 13.2 mM) 38.5 nM; (input ligand: none) 82.9 nM; under setting [1], 111 nM; under setting [2], 113 nM; under setting [3], 53.8 nM.

As for “ACAUGAGGAUCACCCAUGUACGAGUCGGAAGGAGCGGCAAUUAAGCCAGGUAGGUCGCCGGCAGAGAGUGUCAUUGUAAGUAUGA [Same State - Arginine A / A]”, the “apparent KD of MS2 coat protein” value is 14.2 nM (input ligand: arginine 13.2 mM); 14.8 nM (input ligand: none); 26.8 nM under setting [1]; 12.3 nM under setting [2]; 14 nM under setting [3].

Turning to “GGUGGCUGGACUGAUACCAGCCACCACCGAUAGACCACAUGAGGAUCACCCAUGUUGGGUGGCCCUUGGCAGCAGUCCAGCUGCC [#1 Same State - Theophylline B Attempt #10 (HarryS)]”, the “apparent KD of MS2 coat protein” value (input ligand: arginine 13.2 mM) was 152 nM; the “apparent KD of MS2 coat protein” value (input ligand: none) turned out to be 607 nM; the “apparent KD of MS2 coat protein” value under setting [1] came to 374 nM; the “apparent KD of MS2 coat protein” value under setting [2] was 2990 nM; the “apparent KD of MS2 coat protein” value under setting [3] amounted to 873 nM.

As for “UGCGAUUGCUCAGAUACCAGACAUGAGGAUCACCCAUGUACCAAGGUAAAGAAAUAACGUGUCCCUUGGCAGCUGAGCAAUCGCU [MAT - Exclusion Theophlline B - Mod of Eli - D9]”, the “apparent KD of MS2 coat protein” value by setting is: (input ligand: arginine 13.2 mM) 11.9 nM; under setting [1], 14 nM; under setting [3], 11.3 nM.

In the case of “AGUAACAUGAGGAUCACCCAUGUAUGAGAAGGAGCGUGUUUUAACACAGGUAGGUCGCUCAAUAUUAUUUACUAGCGAAAGCUAG [JR_SSArginiA_Sub007]”, the “apparent KD of MS2 coat protein” value by setting is: (input ligand: arginine 13.2 mM) 22 nM; (input ligand: none) 14.6 nM; under setting [1], 23.3 nM; under setting [2], 17.9 nM; under setting [3], 18 nM.

Turning to “ACGAACUGUAGUGAUACCAGACACACAUGAGGAUCACCCAUGUUGUUAGCAUGGUGAAUAGUCCCUUGGCAGCACAGUUAGUUCG [#12 Exclusion-TheophyllineB]”, the “apparent KD of MS2 coat protein” value reads like this: (input ligand: arginine 13.2 mM) 71.5 nM; under setting [1], 111 nM; under setting [3], 94.3 nM.

With “CCCAAUUAGAUCUUUGGAAUUUUACUCGAAGGAGCGUCAUAGUAGGCAGGUAGGUCGCGAGACAUGAGGAUCACCCAUGUAGAGA [btbmullin]”, the “apparent KD of MS2 coat protein” value turned out to be 33 nM (input ligand: arginine 13.2 mM); 40.9 nM (input ligand: none); 50.8 nM under setting [1]; 38.5 nM under setting [2]; 33 nM under setting [3].
